According to paper PMC4227728:

Columns and labels:
[1] = biological target: ErbB2 (as used in the ErbB2 ELISA of the Fab mutants) (human) (UniProt P04626); assay: ELISA
[2] = biological target: ErbB2 ECD labeled with an infrared dye (human) (UniProt P04626); assay: cross-linking

Row | fold reduction of binding against the WT Fab [1] | percent of ErbB2 ECD cross-linked [2] | Substance
1 | 20 fold |  | Herceptin Fab-AcrK103
2 |  | 80% | Herceptin Fab-VSF92
